# Results from patent US11839642B2, “Anti-angiogenin peptides, compositions, and methods of use” (The Board of Regents of the University of Oklahoma, priority 2018, dated 2023).
# Target: T1, angiogenin (Homo sapiens, UniProt P03950)
# T1 construct: purchased R&D systems, Inc., Minneapolis
# Assay: Affinity-selection (biopanning) of Ph.D.-12 phage library against angiogenin, DNA sequencing of plaques
# Assay type: binding
# Settings: after fourth round of affinity-selection
# Procedure: Phage affinity-selection (biopanning) procedure was performed by following the standard protocol with minor modifications (FIG. 1). The target protein angiogenin (R&D systems, Inc., Minneapolis) used for biopanning was diluted to 20, 4, 0.8 and 0.16 μg/mL in 0.1 M NaHCO3 (pH=8.6) in the first, second, third and fourth round, respectively. During each round, 400 μL of angiogenin with designated concentration, was added into a well (diameter is 15.6 mm) of the 24 well cell culture plate (Cat. #: 142475, Thermo Fisher Scientific), and incubated overnight at 4° C. with the lid on in a humidified container. Then the supernatant was pipetted out and the plate was firmly slapped face down on a paper towel to remove the residual solution. Afterwards, 500 μL of blocking buffer (5 mg/mL BSA, 0.1M NaHCO3) was added into the well and incubated for 3 h at 4° C., after which the supernatant was discarded. […]
# A small amount (5 μL) of the above eluate mixture was diluted 10-fold with PBS buffer. […] The titer was calculated by this equation: titer=1000×N×M pfu/mL, where N and M are the dilution factor and the number of the blue phage plaques on a plate, respectively. […]
# T1 sequence (P03950 25-147): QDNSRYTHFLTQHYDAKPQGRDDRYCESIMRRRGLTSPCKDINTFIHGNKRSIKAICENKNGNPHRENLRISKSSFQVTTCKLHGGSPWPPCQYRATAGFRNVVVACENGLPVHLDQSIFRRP
sequence,measurement,value
FHHPSIHDRHRH (PEPTIDE (1)..(12) Completely synthesized in the lab - Ph.D.-12 Phage Display Peptide Library) [FH peptide],repeats of the peptide sequence among 57 sequenced plaques,4 repeats
WPYWNHHSHNNV (PEPTIDE (1)..(12) Completely synthesized in the lab - Ph.D.-12 Phage Display Peptide Library) [WV peptide],repeats of the peptide sequence among 57 sequenced plaques,11 repeats
